In this data set the test system is Bacillus subtilis DB104 (SP-AmyQ fusion secretion). As to the kind of experiment: AmyQ secretion efficiency, weighted average sort bin (1 = best secretion, 10 = worst) (bin number (weighted average, 1-10)); higher = lower secretion efficiency. In a few lines:
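Secretion score gives the read-frequency-weighted average bin number, normalised to beads per bin, with low-abundance sequences left out. A B. subtilis DB104 library expressing mature AmyQ fused to designed signal peptides, integrated at amyE, was encapsulated with fluorescein-starch at about 0.3 cells per ~65 nL alginate bead. Beads were grown about 13 h at room temperature, stained with nile red, and the occupied ones were sorted by large-particle flow cytometry into 10 equally populated bins by green/red fluorescence ratio before the amplicons from each bin were Illumina-sequenced.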

In turn, MKVPKTMLLSTAAGLLLSLTATSVSAHYK showed an AmyQ secretion efficiency of 5.14. The sequence MTKKAWFLPLVCVLLIRKKLAPAASASAQTT gave an AmyQ secretion efficiency of 7.9.

In the case of MKKAFLVFLSVVLVTTVFLVKQQESVAQVKQL, the AmyQ secretion efficiency is 3.34. Turning to MRMLWRSLALCGLALTLAPCAQSAEP, the AmyQ secretion efficiency came to 2.34. Sequence MRKKTKNRLISSVRKTVVISSLLFPGAAGASSK registered an AmyQ secretion efficiency of 4.05. As for MKKRLIAPMLLSAASLAFFAMSGSAQTAAY, the AmyQ secretion efficiency came to 7.42. In turn, MKLWMRKTLVVLFTIVTFGLVSPPAAKMADKP yielded an AmyQ secretion efficiency of 3.22.

For MLKKKWMVFLLAICLAAFGFSYNAFATEN, the AmyQ secretion efficiency was 3.29. Under MKKKRVMLALTAAAGLGLTALHSAPAAKAAPL stands 2.47; under MGMKKKLSLGVASAALGLALVGKKRTWAAFN, 8.1; under MLCVMMLLFSAIAKRRVSAQAKDQ, 7.83. Consider MRHKIITFILAVVVIIIIGNMIGGGGGSEATSH, for which the AmyQ secretion efficiency is 5.06. Take MGLGKKLKKRKRRSFMSLSISLPGVQAAEG: the AmyQ secretion efficiency is 7.65. For the sequence MKLKKRVSMFLVALTMCGGLFVTPAKAEEE, the AmyQ secretion efficiency was 2.9.

In turn, MLKRTSFVSSLFISSAVLLSILLPSGQAHARKR displayed an AmyQ secretion efficiency of 3.12. Sequence MKLSVKIAGVLTVAAAAMTAKMYKTAKGN came in with an AmyQ secretion efficiency of 7.2.

In turn, “MKKRLIAPMLLSAASLAFFAALIFILLLTFMSGSAQAAAY” displayed an AmyQ secretion efficiency of 3.37.

Sequence MKKWLIIAVSLAIAIVLFMYTKGEAKTAGM gave an AmyQ secretion efficiency of 4.28. The sequence MILANSVSALTPSTTLAITAKAKEL showed an AmyQ secretion efficiency of 8.58. Under MGLGKKLSVAVAASFMSLSISLPGVQAAPG stands 2.04; under MKKKLAAGLTASAIVGTTLVVTPAEGATI, 3.33; under MFNRLFRVCFLAALIMAFTLPNSPYAQKP, 7.43. The value for MKKQIITATTAVVLGSTLFAGAYSAQSI was 5.58; that for MKRLKVSLRVWMVFLMNWVTPDRKTAAAAVY was 6.85. MRPVFPLILSAVLFLSCFFGARQTEASRSKR displayed an AmyQ secretion efficiency of 2.45. The sequence MKSKGSIMSCLILFSFTITTFINTETISAFSN displayed an AmyQ secretion efficiency of 3.29. Under MKKKQVMLALTAAAGLGLTALHSAPAAKQAPL stands 4.93; under MRKKLKWLSFRRRRIILLFLFKYQFSNNDS, 7.16.

MKIRKILLSSALSFGMLISAVPALNAGT yielded an AmyQ secretion efficiency of 6.27.

In turn, MLKKKWMVGLLAGCLAAGGFSYNAFNTEN registered an AmyQ secretion efficiency of 6.56. MKLSVKIAGVLTVAAAAMTAKMYHTAKGN displayed an AmyQ secretion efficiency of 6.87.

MKKIMSAFVGMVLLTIFCFSPQASARRR registered an AmyQ secretion efficiency of 6.47. The sequence MGLGKKLSVAVAASFMSLSISLDEEDDEVQAAEG yielded an AmyQ secretion efficiency of 1.62.

MTMLRKIIGWILLLCIIPLFAFTVIGSGKEV showed an AmyQ secretion efficiency of 6.78. As for MNKPTKLFSTLALAAGMTDEEEEEAGTIHAQQP, the AmyQ secretion efficiency stood at 7.16. With MRGKSAVLLSLIMLIAGFLISFHFQM, the AmyQ secretion efficiency worked out at 7.78. For MKRIRIPMTLKRKRKRTIAPLSFASAEEN, the AmyQ secretion efficiency is 8.12. MLLNLAAGLTASAIVGTTLVVTPAEAATI: the AmyQ secretion efficiency came out at 6.11.

Turning to MKRLLSTLLIGITFAPSAFAKQD, the AmyQ secretion efficiency is 2.73. The sequence MKRIRIPMTLALGAALTIAPLSFASMEEN showed an AmyQ secretion efficiency of 6.12. The sequence MKLAKRVSALTPSTTLAITYKAKEL displayed an AmyQ secretion efficiency of 6.96. MKKKKKRVGLLAGCLAAGGFSYNAFATEN showed an AmyQ secretion efficiency of 6.9. Sequence MRKKRMIMMVITCVMAASLTLGSLLPAGYASAKED gave an AmyQ secretion efficiency of 3.07. Under MLKKKWMVGLLAGCLAAGGFSYNAFCTEN stands 6.56. MKLAKRVSALTPSTTLAITAKDKEL displayed an AmyQ secretion efficiency of 6.63.

Take MKNMSCKLVVSVTLFFSFLTIGPLAHTQNS: the AmyQ secretion efficiency turned out to be 4.17. For the sequence MKKLLAAGIIGLLTVSIASPVFAAEK, the AmyQ secretion efficiency is 2.43. As for MGLGKKLSVAVAASFMSLSISLPGVQKAEG, the AmyQ secretion efficiency was found to be 3.62.

Sequence MKKAAAVLLSLGLVFGFSYGAGHVWEAKTK came in with an AmyQ secretion efficiency of 5.37. MKRKLLSSLAISALSLGLLVSGPTTSFAAES had an AmyQ secretion efficiency of 3.9.

On to MKKRKVLLSALLLLLFAFEPSASGKKL, for which the AmyQ secretion efficiency is 2.85. MAAQTDYKKQVVGILLSLAFVLRRRKFSERHE gave an AmyQ secretion efficiency of 7.65. For MRPVFPLILSAVLFLSCFFGARQTEASWSKR, the AmyQ secretion efficiency was 4.13.

Take MRFTKVVGFLSVLGLAAVFPLTVQAEKA: the AmyQ secretion efficiency came out at 3.18. With MKRKQYSGRKLSIIVAYPIQTNASPM, the AmyQ secretion efficiency is 6.49.

As for MKLAKRVKRRKRKTTLAITAKAKEL, the AmyQ secretion efficiency stood at 7.36. MKVLLSALLLLLFAFEPSNSGKKL had an AmyQ secretion efficiency of 6.02. Turning to MFGWMAGLFLAAAVLLCLMVPQQIQGASS, the AmyQ secretion efficiency stood at 4.3.

Regarding MPYLKRVLLLLVTGLFMSLFAVTATASARRR, the AmyQ secretion efficiency was found to be 7.69. In turn, MKKTIMSFVAVAALSTTAFGAHASAADD came in with an AmyQ secretion efficiency of 2.13.

On to MKKAAAVLLSLGLVFGFSYGAGHVAENKTK, for which the AmyQ secretion efficiency is 4.78. Under MPIKKKVMMCLAVTLVFGSMSFPTLTNSGNFKE stands 5.35. With MKLAKRVSALTPSTTLAITAKAARK, the AmyQ secretion efficiency was 7.54. The value for MKKLLAAGIIGLLTVSIASPHFAAEK was 7.4. Sequence MKKKLAAGLTASAIVGTTLVVTPAEADDD had an AmyQ secretion efficiency of 5.01. MKKRMMMIMFFGPIILAFILFAGAIAIPS came in with an AmyQ secretion efficiency of 7.34. For the sequence MKNMSCKLVVSVTLFFSFLTIGPLAHAQND, the AmyQ secretion efficiency is 1.22. MKKWIYTYKVLSIAGIGGFSVHAASS had an AmyQ secretion efficiency of 6.93. On to MRKTIFAFLTGLMMFGTITAISASPD, for which the AmyQ secretion efficiency was determined as 5.52. Under MKIRKILLSSALSFGMLISAVPALMAGT stands 6.44; under MKTLRTKCRKKILSGVIFFGLKIDAKDI, 6.97. In turn, MLKRTSFVSSGKYTTAVLLSILLPSGQAHAQSA registered an AmyQ secretion efficiency of 2.65. Regarding MKWMCSICCAAVLLAGGAAQARRK, the AmyQ secretion efficiency was determined as 6.49.

Sequence MTMLRKIIGWILLLCIIPLFAFTVIASAKEV returned an AmyQ secretion efficiency of 4.98. As to MRFTKVVGFLSVLGLAAVFPLTAQREKA, the AmyQ secretion efficiency was 5.37.

MLKKKWMVGLLAGCLAAGGFSYNMFATEN had an AmyQ secretion efficiency of 6.41. In turn, MRKKRVITCVMAASLTLGSLLRKRKKRASAKED yielded an AmyQ secretion efficiency of 6.48. MRMLWRSLALCGLALTLAFLSVSLFFVPCAQAAEP gave an AmyQ secretion efficiency of 1.41. Regarding MKKVLMAFIICLSLILSVLAAPPSGAKEESV, the AmyQ secretion efficiency was found to be 3.2.

For the sequence MKRFLIGAGVAAVILSGWFIADHQTHGQEM, the AmyQ secretion efficiency was 5.37. Sequence MKRKLLSSLAISALSLGLLVRKRTASFAAES gave an AmyQ secretion efficiency of 6.75. Turning to MKKKLAAGLTASAIVGTTLVRKKKAEAATI, the AmyQ secretion efficiency came to 8.06. The sequence MKKRKRKTLVVLFTIVTFGLVSPPAALMADKP displayed an AmyQ secretion efficiency of 2.34. In turn, MKNMSCKLVVSVTLFFSFLTIGPLVFPFAHAQNS gave an AmyQ secretion efficiency of 4.97. Sequence MLCVMMLLFSAIASFPVSAQYKDQ returned an AmyQ secretion efficiency of 6.57. In turn, MPYLKRVLLLLVTGLFMSLFAVTATASGQTG yielded an AmyQ secretion efficiency of 1.24. Sequence MRPVFPLKRSAVLFLSCFFGARQTEASASKR had an AmyQ secretion efficiency of 8.12. Under MKSKGSIMACLILFSFTITTFINTETISRFSN stands 8.63; under MLFNTSFVSSLFISSAVLLSILLPSGQAHAQSA, 2.42; under MNLRKIRKKRALSLGMLVSAAPVLATSS, 7.46. In turn, MKIRKILLSSALSFGMLEDEVPALAAGT came in with an AmyQ secretion efficiency of 2.62. The sequence MRPVFPLILSAVLFLSCFFGARQTEASAEEE yielded an AmyQ secretion efficiency of 2.93. As for MKLKSKLLLSCLALSTVFVATTIANNPTH, the AmyQ secretion efficiency is 5.17. MKKWMITIAMLILAGIALFVFISPPKSHKT had an AmyQ secretion efficiency of 5.84. MFTNHTISLLIIFLLASAVLAKPIEAHTV showed an AmyQ secretion efficiency of 2.28. Under MRIFKKAVFVIMISFLIATVNVNTAHGAID stands 5.43; under MLKKKWVGLLAGCLAAGGFSYNAFATEN, 4.85. In turn, MKLSVKIAGVLTVAAAAMTAKMYGTAKGN had an AmyQ secretion efficiency of 5.59. MTKKAWFLPLVCVLLISGWLAPAASASAQTD gave an AmyQ secretion efficiency of 1.97. The value for MNRRKILLSSALSLGMLVSAAPVLATSS was 2.39; that for MLCVMMLLFSAIATFVVVAQAKDQ was 6.49; that for MRKKRVITCVMAASLTLGSLLSPAGYASAKED was 3.22. MQNRLFRVCFLAALIMAFTLPNSVYAQKP registered an AmyQ secretion efficiency of 1.12.

As for MKNMSCKLVVSVTLFFSFLTIGPLQHAQNS, the AmyQ secretion efficiency was found to be 5.15.

In turn, MKSKGSIMACLILFSFTTFINTETISAFSN yielded an AmyQ secretion efficiency of 4.68. In turn, MLSIWIGMLAAAVLLLMVPKVSLADAA gave an AmyQ secretion efficiency of 6.86. The sequence MKRLLVSLRVWMVFLMNWVTPDRKTNAAAVY showed an AmyQ secretion efficiency of 6.68. For MKKIGLLFMLCLAALFTIGFPAQQLDAAEA, the AmyQ secretion efficiency worked out at 2.04.

MGLGKKLSVAVAASFMSLSISLPGVQAAPR came in with an AmyQ secretion efficiency of 2.88.

(Values after the supplement of paper PMC9942255.)
